Laboratory results reported in patent US20100248359A1 (Chugai, published 2010).

Tests used:
[1] = molecular target: T1, full-length human GPC3 (human, UniProt P51654 25-554); assay: flow cytometry, antibody at 5 µg/mL, HepG2 cells
T1 construct: On CHO (DXB11) or SK-HEP-1 (SK-03) transfectants; also used here for the GPC3 on the hepatoma lines HepG2 and HuH-7; also called human glypican 3

[2] = molecular target: T1, full-length human GPC3; assay: flow cytometry, antibody at 5 µg/mL, HuH-7 cells
[3] = molecular target: T2, soluble form of GPC3 core protein (human, UniProt P51654 25-563); assay: ELISA on plate coated with soluble GPC3 core protein
T2 construct: not shown: His tag added to the C-terminus

[4] = molecular target: T1, full-length human GPC3; assay: BIACORE; the form of GPC3 used is not given
[5] = molecular target: T3, C-terminal fragment of 30 kDa of the soluble form of GPC3 core protein (human, UniProt P51654 375-563); assay: Western blotting of soluble GPC3 core protein after reducing SDS-PAGE
T3 construct: the shorter limit is written; also called C-terminal side; band of about 30 kDa; not shown: His tag at the C-terminus
T3 chain: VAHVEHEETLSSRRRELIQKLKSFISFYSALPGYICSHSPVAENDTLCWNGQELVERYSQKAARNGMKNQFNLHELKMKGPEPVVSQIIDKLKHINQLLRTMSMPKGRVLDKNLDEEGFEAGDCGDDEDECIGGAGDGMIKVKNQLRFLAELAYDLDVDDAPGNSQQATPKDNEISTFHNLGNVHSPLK

[6] = molecular target: T2, soluble form of GPC3 core protein; assay: competitive ELISA on coated soluble GPC3 core protein; labelled competitor biotin-M1E7;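 further: Biotin-labelled antibody added as 10 µL at 10 µg/mL for 1 h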
[7] = molecular target: T2, soluble form of GPC3 core protein; assay: competitive ELISA on coated soluble GPC3 core protein; labelled competitor biotin-M5B9;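 further: Biotin-labelled antibody added as 10 µL at 10 µg/mL for 1 h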
[8] = molecular target: T2, soluble form of GPC3 core protein; assay: competitive ELISA on coated soluble GPC3 core protein; labelled competitor biotin-M6B1;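 further: Biotin-labelled antibody added as 10 µL at 10 µg/mL for 1 h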
[9] = molecular target: T2, soluble form of GPC3 core protein; assay: competitive ELISA on coated soluble GPC3 core protein; labelled competitor biotin-L9G11;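 further: Biotin-labelled antibody added as 10 µL at 10 µg/mL for 1 h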
[10] = molecular target: T2, soluble form of GPC3 core protein; assay: competitive ELISA on coated soluble GPC3 core protein; labelled competitor biotin-M10D2;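 further: Biotin-labelled antibody added as 10 µL at 10 µg/mL for 1 h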
[11] = molecular target: T2, soluble form of GPC3 core protein; assay: competitive ELISA on coated soluble GPC3 core protein; labelled competitor biotin-M11F1;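 further: Biotin-labelled antibody added as 10 µL at 10 µg/mL for 1 h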
[12] = molecular target: T2, soluble form of GPC3 core protein; assay: competitive ELISA on coated soluble GPC3 core protein; labelled competitor biotin-M18D4;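 further: Biotin-labelled antibody added as 10 µL at 10 µg/mL for 1 h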
[13] = molecular target: T2, soluble form of GPC3 core protein; assay: competitive ELISA on coated soluble GPC3 core protein; labelled competitor biotin-M3C11;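 further: Biotin-labelled antibody added as 10 µL at 10 µg/mL for 1 h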
[14] = molecular target: T1, full-length human GPC3; assay: flow cytometry, antibody at 5 µg/mL, CHO cells expressing human GPC3 (column CHO/human GPC3)
[15] = molecular target: T4, GC-1 (GST fusion of GPC3 Ser495 to Lys563) (human, UniProt P51654 495-563); assay: Western blotting of GST-fusion proteins, reducing SDS-PAGE
T4 construct: Made in E. coli DH5alpha; not shown: GST as encoded by pGEX-4T-3 (Amersham), N-terminal to the GPC3 peptide
T4 sequence: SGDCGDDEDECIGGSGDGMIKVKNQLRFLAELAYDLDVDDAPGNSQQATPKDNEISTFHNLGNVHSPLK

[16] = molecular target: T5, GC-2 (GST fusion of GPC3 Gly510 to Lys563) (human, UniProt P51654 510-563); assay: as above
T5 construct: not shown: GST as encoded by pGEX-4T-3 (Amersham), N-terminal to the GPC3 peptide
T5 sequence: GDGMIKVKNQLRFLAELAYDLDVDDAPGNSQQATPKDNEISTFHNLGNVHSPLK

[17] = molecular target: T6, GC-3 (GST fusion of GPC3 Ala524 to Lys563) (human, UniProt P51654 524-563); assay: as above
T6 construct: not shown: GST as encoded by pGEX-4T-3 (Amersham), N-terminal to the GPC3 peptide
T6 chain: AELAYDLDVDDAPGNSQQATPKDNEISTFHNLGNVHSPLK

T2 sequence (P51654 25-563 S495A/S509A, form in doubt): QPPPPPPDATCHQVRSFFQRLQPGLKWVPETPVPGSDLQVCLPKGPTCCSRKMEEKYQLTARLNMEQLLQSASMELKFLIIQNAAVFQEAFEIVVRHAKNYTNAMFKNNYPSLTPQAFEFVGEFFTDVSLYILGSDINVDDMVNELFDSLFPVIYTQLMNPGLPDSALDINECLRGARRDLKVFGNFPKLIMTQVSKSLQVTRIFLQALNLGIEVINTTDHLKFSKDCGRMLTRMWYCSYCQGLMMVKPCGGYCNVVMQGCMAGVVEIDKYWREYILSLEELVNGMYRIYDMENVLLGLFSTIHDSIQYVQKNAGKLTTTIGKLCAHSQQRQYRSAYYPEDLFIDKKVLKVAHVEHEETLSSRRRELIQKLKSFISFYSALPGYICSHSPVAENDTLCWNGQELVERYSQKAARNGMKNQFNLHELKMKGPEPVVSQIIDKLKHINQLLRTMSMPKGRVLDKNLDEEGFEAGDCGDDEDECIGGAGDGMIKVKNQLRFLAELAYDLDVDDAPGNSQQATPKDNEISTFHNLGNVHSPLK
T1 sequence (P51654 25-554 limits assumed): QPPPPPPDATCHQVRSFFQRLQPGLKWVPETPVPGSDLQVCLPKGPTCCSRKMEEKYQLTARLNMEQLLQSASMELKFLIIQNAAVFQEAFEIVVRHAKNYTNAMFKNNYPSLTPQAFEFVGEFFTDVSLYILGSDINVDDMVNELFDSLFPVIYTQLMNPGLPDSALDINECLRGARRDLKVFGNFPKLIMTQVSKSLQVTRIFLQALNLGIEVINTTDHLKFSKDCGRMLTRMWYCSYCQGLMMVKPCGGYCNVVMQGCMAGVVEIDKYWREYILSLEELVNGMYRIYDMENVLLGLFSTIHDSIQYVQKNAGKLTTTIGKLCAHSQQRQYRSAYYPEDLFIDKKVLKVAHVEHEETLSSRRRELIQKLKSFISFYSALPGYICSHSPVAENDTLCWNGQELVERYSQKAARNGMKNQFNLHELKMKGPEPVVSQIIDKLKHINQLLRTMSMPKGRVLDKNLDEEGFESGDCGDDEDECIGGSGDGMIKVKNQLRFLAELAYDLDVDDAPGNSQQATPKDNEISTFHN

B1: L9G11 (antibody, V domains shown)
VH: QVQLQQPGAELVKPGASVKLSCKASGYTFTSYWMHWVKQRPGQGLEWIGTIDPSDSETHYNLQFKDTATLTVDKSSSTAYMQLSSLTSEDSAVYYCIRGAFYSSYSYWAWFAYWGQGTLVTVSA
VL: DIVLTQSPTSLAVSLGQSVTISCRASESVEYYGTSLMQWYQQKPGQPPKLLIYGASNVESGVPARFSGSGSGTDFSLNIHPVEEDDIAMYFCQQSRKVPYTFGSGTKLEIK
notes: Mouse monoclonal from hybridoma
With B1 the “FACS X-mode value of the histogram” value [1] was 26, the “FACS X-mode value of the histogram” value [2] was 4 and the EC50 [3] was 0.62 nM. The Kd [4] was 10.7 nM, the koff [4] was 0.0014 s⁻¹ and the kon [4] was 130000 M⁻¹ s⁻¹. For the same binder, the binding result [5] was “no binding”, the “Inhibition of the binding of indicated biotin-Mab to sGPC3 core (%)” value (“Inhibition of the binding … (%)” below) [6] was -4.8% and the “Inhibition of the binding … (%)” value [7] was 6.4%. The “Inhibition of the binding … (%)” value [8] was 10.1%, the “Inhibition of the binding … (%)” value [9] was 92.2% and the “Inhibition of the binding … (%)” value [10] was 1.2%. For the same binder, the “Inhibition of the binding … (%)” value [11] was 6%, the “Inhibition of the binding … (%)” value [12] was 15.7% and the “Inhibition of the binding … (%)” value [13] was 2.1%. For the same binder, the “FACS X-mode value of the histogram” value [14] was 29.

B2: M3B8 (antibody, V domains shown)
VH: QVTLKESGPGILQPSQTLSLTCSFSGFSLSTYGMGVGWIRQPSGMGLEWLANIWWYDAKYYNSDLKSRLTISKDTSNNQVFLKISSVDTSDTATYYCAQMGLAWFAYWGQGTLVTVSA
VL: DIKMTQSPSSMYASLGERVTITCKASQDINNYLSWFQQKPGKSPKTLIYRANRLVDGVPSRFSGSGSGQDYSLTISSLEYEDMGINYCLQCDEFPPWTFGGGTKLEIK
notes: as for B1
B2: binds [15]; binds [16]; binds [17].
